Data taken from the DeepSol protein solubility set.

experiment: soluble on expression in E. coli; label from the status in PepcDB or PDB records

Row | Sequence | soluble on expression in E. coli
1 | WMQTSDGLRIRAGHWRPEGEVRGTVLMFPGRTEYVEKYGNAAQAFVTRGFAMLAVDWRGQGLADRLLEDRRLGHVLEFTDYQRDVAAVVELATTLDLPRPWFVVGHSMGGAIGLRAVMEGLPVAACAFTGPMWGIFFTPVMKPLSWITANLAPAIGMGHKHPATTTLEPYVQAQEFEGNSLTRDPAMYEMMRSQLAAHPELALGAPTNIWLREALAECRALSDRPSPDLPCLTFLGSHEQIVDRKAVRARMARWPRGELVEIPDGEHEVLMEAPEVRDPAYDRM | not soluble
2 | MAFANFRRILRLSTFEKRKSREYEHVRRDLDPNEVWEIVGELGDGAFGKVYKAKNKETGALAAAKVIETKSEEELEDYIVEIEILATCDHPYIVKLLGAYYHDGKLWIMIEFCPGGAVDAIMLELDRGLTEPQIQVVCRQMLEALNFLHSKRIIHRDLKAGNVLMTLEGDIRLADFGVSAKNLKTLQKRDSFIGTPYWMAPEVVMCETMKDTPYDYKADIWSLGITLIEMAQIEPPHHELNPMRVLLKIAKSDPPTLLTPSKWSVEFRDFLKIALDKNPETRPSAAQLLEHPFVSSITSNKALRELVAEAKAEVMEEIEDGRDEGEEEDAVDAASTLENHTQNSSEVSPPSLNADKPLEESPSTPLAPSQSQDSVNEPCSQPSGDRSLQTTSPPVVAPGNENGLAVPVPLRKSRPVSMDARIQVAQEKQVAEQGGDLSPAANRSQKASQSRPNSSALETLGGEKLANGSLEPPAQAAPGPSKRDSDCSSLCTSESMDYGTNLSTDLSLNKEMGSLSIKDPKLYKKTLKRTRKFVVDGVEVSITTSKIISEDEKKDEEMRFLRRQELRELRLLQKEEHRNQTQLSNKHELQLEQMHKRFEQEINAKKKFFDTELENLERQQKQQVEKMEQDHAVRRREEARRIRLEQDRDYTRFQEQLKLMKKEVKNEVEKLPRQQRKESMKQKMEEHTQKKQLLDRDFVAKQKEDLELAMKRLTTDNRREICDKERECLMKKQELLRDREAALWEMEEHQLQERHQLVKQQLKDQYFLQRHELLRKHEKEREQMQRYNQRMIEQLKVRQQQEKARLPKIQRSEGKTRMAMYKKSLHINGGGSAAEQREKIKQFSQQEEKRQKSERLQQQQKHENQMRDMLAQCESNMSELQQLQNEKCHLLVEHETQKLKALDESHNQNLKEWRDKLRPRKKALEEDLNQKKREQEMFFKLSEEAECPNPSTPSKAAKFFPYSSADAS | soluble
3 | MSLRILAIDTATEACSVALWNNGTINAHFELCPREHTQRILPMVQEILAASGASLNEIDALAFGRGPGSFTGVRIGIGIAQGLALGANLPMIGVSTLATMAQGAWRKTGATRVLAAIDARMGEVYWAEYQRDAQGVWQGEETEAVLKPERVGERLKQLSGEWATVGTGWSAWPDLAKECGLTLHDGEVSLPAAEDMLPIASQKLAAGETVAVEHAEPVYLRNEVAWKKLPGKEEGHHHHHH | soluble
4 | MGHHHHHHSHMTPGVVHASPPQSQRVPRQAPCEWAIRNIGQKPKEPNCHNCGTHIGLRSKTLRGTPNYLPIRQDTHPPSVIFCLAGVGVPGLPV | not soluble
5 | MGSDKIHHHHHHMKEQILEKLKTVKYPGFEKDIVSFNFVKDIKIQDDGVFIDIEIVSANPEVANEIRKNTIEALSSLALKNIELNIITPKIPEEKSNSRSGKNIAPQVKNFIMVSSGKGGVGKSTTTVNLAISMAKMGKRVGILDADIYGPNIPRMLGETKTQPEVVGQRLKPILTHGVYMMSMGVLIEEGQGLMWRGAMIMKAIEQLLADVIWPELDVLFLDMPPGTGDAQITSAQSIPIAAGVCVSTPQTVSLDDSKRALDMFNKLHIPIAGVIENMSGFLCPDNGKEYDIFGKGTAEDMAKAYKSEVLAQIPIEMIVREGGDEGKPVSFYHPESVSSKRYLMAAEKIWSFIEKINNEGGADNSAIQPVMNGKSACSH | not soluble
6 | EQIVAAYDNSLLYTDHFLVRTIGMLRDMSDYDTAMIYLSDHGESLGEKGLYLHGMPYAIAPVEQTRVPMVIWFSKQFVQSRQIDLNCVHQRARQYADHDNLFSSVLGLMQVKTALYERPHDLFATCEK | not soluble
7 | MNRYITRGIDNNLPIILQQQLWKLVAQRENEQSKELEAIDYFHIFQFNMHNDQLCIKHKQERPEYIKTHKANYSKAINIKKVYIIREDDVDLSYYVMLLPEEYAAALEHHHHHH | soluble
8 | MKGDVSPIFSPKHLQFKRPTLWRYGRIQKISIMSSKRSSPTGKLRLLSFLRDLLEDESNSDIIYWFDKSESVFKMSKPHKVAELWGAATGNPGMNYDKMSRGLRYFYTNNTLEKVPGKDARYRFIDSPRHSFLDFSMKTELETPVKRTPLFNISNLISDFEVSNNSLTSSPTSSASSVEPSSPTTTESSLDPSQFVQLTQNLVQFNTFMSQNPMFHTLPLPTQLQVFFNFKTIFPSLFPALV | not soluble
9 | MQFNYDVIVVGAGHAGCEAAAAAAKLGSQVLLITPDMNKIAQMSCNPAVGGIAKGQIVREIDALGGRMGIVTDATAIQFRMLNRSKGPAMWSPRAQSDRMRFMEAWRDIVEHEPNLYMWQDSVRCLSIRQGAVAGVVTALGVEFQARTVVLTTGTFLGGVMHFGERMIEGGRIAEPAFHGITEQLRDLGFRTDRMKTGTPARIDGRSIDFSLTTEQSGEEDHHRFSYMDTPRRVLRQRSCYALYTNPECHEILSKGLDRSPLYNGQIQSIGPRYCPSIETKIVTFADKEMHQLFLEPEGETSNEFYLNGFSSSLPLEIQLEALKAIPALRHVHIYRPGYAIEYDFFDPTQLRHTLETKPVKGLFFAGQINGTTGYEEAAGQGLIAGINAHLHCHGAGEFTLGRDEAYIGVLIDDLVSKGVDEPYRMFTSRAEYRILLRQDDADMRLTPKAEAIGLADSRRSELLREKQVFRDKLIDFTHKFSLKPDLINPHLESAGHLPLKQGIKLYDLLLRPQIGMNEVCSMVPSLQRIVEEIPASRREEIVEAAEILIKYDGYIKRERALADKINRLESIRLPQHVDYMQMQSLSTEARQKLTSIRPETIAQASRIPGVSPHDVSILLVLCGR | not soluble
10 | GMHSNINTLIANHRAGHALDQAFYTDAEVFQTDLQEIFYKEWLFAIPACELDKPGSYVTHQVGNYNVIIVRGADNVIRAFHNACRHRGSVICKAKKGNNPKLVCPYHQWTYELDGRLLWARDMGPDFEPSRHGLKTVHCRELAGLIYICLADEAPDFERFAEVARPYLEVHDLSNAKVAHESSIVERGNWKLVWENNRECYHCGGNHPALCRTFPDDPSVTGIEGGETPSNLQAHFDRCEQAGMPSGFHLSGDGQFRVARMPLKEGAESYTMDGKTAVRRWLGRAAFADAGSLLKFHYPTTWNHFLSDHSIVFRVTPISPTETEVTTKWLVHKDAVEGVDYDLQRLTEVWIATNDEDREVVEFNQMGINSPAYEPGPYSPTQESGVLQFVEWYLSTLKRNSGPHAVAAE | soluble
11 | MSDKDDLIVAGVNQKDKGIWRDFYDRYYAALCSYVEKILFLTDAVEDLVQEVFISVWEGKRTFSDSRELTNYLYRACYNNALLYIRNHQIHDSILNGLPQEEDFEDEEMLYALTVKEEAIRQLYFYIEELPAEQRRIILLRIEGHSWDEIASRLGVSINTVKTQKSRSYKFLREKLANSSYSVLLALIFY | not soluble
12 | MKFVVASYGTRGDIEPCAAVGLELQRRGHDVCLAVPPNLIGFVETAGLSAVAYGSRDSQEQLDEQFLHNAWKLQNPIKLLREAMAPVTEGWAELSAMLTPVAAGADLLLTGQIYQEVVANVAEHHGIPLAALHFYPVRANGEIAFPARLPAPLVRSTITAIDWLYWRMTKGVEDAQRRELGLPKASTPAPRRMAVRGSLEIQAYDALCFPGLAAEWGGRRPFVGALTMESATDADDEVASWIAADTPPIYFGFGSMPIGSLADRVAMISAACAELGERALICSGPSDATGIPQFDHVKVVRVVSHAAVFPTCRAVVHHGGAGTTAAGLRAGIPTLILWVTSDQPIWAAQIKQLKVGRGRRFSSATKESLIADLRTILAPDYVTRAREIASRMTKPAASVTATADLLEDAARRAR | not soluble
13 | MIIMEKGVVSDSYEVAIARNPHLAEYLSKYRNETGRSPSFLVNIDSSLKSLAHVDVIYPVGDPIFIHIYERGKERRYKPIEPLLKDDEFEFMDAILDIIMSRASDYPPAENEEEQEKNIEDVYKKTVSVGSNKIKRNSVTLEKPLYDKMLYNVKKEIIGLGPLEPLIRDSHIEDISGIGPEDVYIVHKIFGSMPTDITFGSMERLMRFSKRLSERVGRPVSDKRPIVDATLPDGSRLSIVYSTDISQRGPSFTIRKFSEIPLSILNLIKYNTMSYEEAAYLWLALEYGQSVFVCGETASGKTTVVNAIIPFIRPESKIFSAEDTPEIRAPQKAWQQLVTRESGAEESRVTLYDLLRTALRSRPNYIIVGEIRGAEGAMAFQAMQTGHPVISTFHASSVKKMIQRFTGNPINIPVTFMDNLNIVLIQQAVYVGGKFLRRTTSINEIEGYYEDLGGVATRAVFEWDPSTDRHMFRGMNNSYILEEKIAKTAGLVDTSLIYNELFRRARILKDLADQKILDYYQVYEKIKEFYEGALANGY | not soluble
14 | MTEAAKKSTKKPVDDGNFDKEIISRWPDLELSQTRFMLNHPEVDSSVKEAKLEKLQETIKEFDMAPFYELVCADFKIVVDATQLAAMKAANQKKIDEITAEVEDAEKNLGESEVRQGLLRKFEYYCQIGDKDNALKAYTATYEKTVGMGYRIDVVFAMIRVGLFFLDHHLINKFITKAKELMEQGGDWERKNRLRSYEALYRMSVRDFAGAADLFLEAVPTFGSYELMTYENLILYTVITTTFALDRPDLRTKVIRCNEVQEQLTGGGLNGTLIPVREYLESYYDCHYDRFFIQLAALESERFKFDRYLSPHFNYYSRGMRHRAYEQFLTPYKTVRIDMMAKDFGVSRAFIDRELHRLIATGQLQCRIDAVNGVIEVNHRDSKNHLYKAVIKDGDILLNRIQKLARVINA | not soluble
15 | MKQMNVVLIGGGTGLSVLARGLREFPIDITAIVTVADNGGSTGKIRDVMDIPAPGDIRNVIAALSDSESILTQLFQYRFGENQVDGHSLGNLVIAGMTNITNDFGHAIKELSKVLNIKGQVIPSTNASVQLNAVMEDGEIVHGETNIPKTHKKIDRVFLEPSDVEPMNEAIEALEQADLIVLGPGSLYTSVISNLCVKGISEALLRTSAPKLYVSNVMTQPGETDNYDVKEHIDALTRQVGEPFIDFVICSSESYSKDVLQRYEEKNSKPVAVHKEQLKDSGIRVLTASNLVEISNEHYVRHNTKVLSKMIYELALELTSTIRFTPSDKKKMAGDPLEHHHHHH | soluble
16 | MGSSHHHHHHMTLNQPEYFTKYENLHFHRDENGILEVRMHTNGSSLVFTGKTHREFPDAFYDISRDRDNRVVILTGSGDAWMAEIDFPSLGDVTNPREWDKTYWEGKKVLQNLLDIEVPVISAVNGAALLHSEYILTTDIILASENTVFQDMPHLNAGIVPGDGVHILWPLALGLYRGRYFLFTQEKLTAQQAYELNVVHEVLPQSKLMERAWEIARTLAKQPTLNLRYTRVALTQRLKRLVNEGIGYGLALEGITATDLRNN | soluble
17 | GSTAMATTMEQEICAHSMTFEECPKCSALQYRNGFYLLKYDEEWYPEELLTDGEDDVFDPDLDMEVVFETQ | soluble
